Target: T1, rProtein A Sepharose FF (Staphylococcus aureus, UniProt P38507 37-327)
T1 construct: the protein ligand is immobilized on agarose beads; also called rProtein A Sepharose 4 FF
Assay: microtiter plate column chromatography, Bradford assay; Bound (%)

B1: Bevacizumab Fab fragment (Fab, V domains shown)
VH: EVQLVESGGGLVQPGGSLRLSCAASGYTFTNYGMNWVRQAPGKGLEWVGWINTYTGEPTYAADFKRRFTFSLDTSKSTAYLQMNSLRAEDTAVYYCAKYPHYYGSSHWYFDVWGQGTLVTVSS
VL: DIQMTQSPSSLSASVGDRVTITCSASQDISNYLNWYQQKPGKAPKVLIYFTSSLHSGVPSRFSGSGSGTDFTLTISSLQPEDFATYYCQQYSTVPWTFGQGTKVEIKR
notes: also called Fab fragments
binding result: no binding

Reference: patent WO2011104307A2 (dated 2011)
